{"source": "patent US20160145343A1", "about": "(UNIVERSITY OF PITTSBURGH OF THE COMMONWEALTH SYSTEM OF …, published 2016)", "binders": {"B1": {"name": "M22 (antibody, human IgG1, kappa, V domains shown)", "VH": "EVQLVESGGGLVQPGGSLRLSCAASGFTVSSNYMSWVRQAPGKGLEWVSVIYSGGTTYYADSVKGRFTISRHNSKNTLYLQMNSLRAEDTAVYYCARDHDPDYGGYYMDVWGKGTTVTVSS", "VL": "DVVMTQSPLSLPVTLGQPASISCRSSQSLVYSDGNTYLNWFQQRPGQSPRRLIYQVSNRDSGVPDRFSGSGSGTDFTLKIGRVEAEDVGVYFCMQGTHWPWTFGQGTKVEIKR", "notes": "Human IgG"}, "B2": {"name": "M21 (antibody, human IgG1, kappa, V domains shown)", "VH": "EVQLVESGGGLVQPGGSLRLSCAASGFTVSSNYMSWVRQAPGKGLEWVSVIYSGGSTYYADSVKGRFTISRDNSKNTLYLQMNSLRAEDTAVYYCARDQEHYFDGSGYYVDYWGQGTLVTVSS", "VL": "B1 VL", "notes": "Human IgG"}, "B3": {"name": "M20 (antibody, human IgG1, kappa, V domains shown)", "VH": "EVQLVESGGGLVQPGGSLRLSCAASGFTFSSYWMHWVRQAPGKGLVWVSHINSDGSSTSYADSVKGRFTISRDNAKNTLYLQMNSLRAEDTAVYYCARELADWGQGTLVTVSS", "VL": "B1 VL", "notes": "Human IgG"}, "B4": {"name": "M3 (antibody, human IgG1, lambda, V domains shown)", "VH": "QLQLQESGPGLVKPSETLSLTCTVSGGSISSSSYYWGWIRQPPGKGLEWIGSIYYSGSTHYNPSLKSRVTISVDTSKNQFSLKLRSVTAADTAVYYCARGVVEVRGNHYYYYYMDVWGKGTTVTVSS", "VL": "QSVLTQPPSVSGAPGQRVTISCTGSSSNIGAGYDVHWYQQLPGTAPKLLIYGNSYRPSGVPDRFSGSKSGTSASLAITGLQAEDEADYYCQSYDSSLSGSGVFGGGTKLTVLG", "notes": "Human IgG"}, "B5": {"name": "M7 (antibody, human IgG1, kappa, V domains shown)", "VH": "EVQLVESGGGLVQPGGSLRLSCAASGFTVSSNYMSWVRQAPGKGLEWVSVIYSGGSTYYADSVKGRFTISRDNSKNTLYLQMNSLRAEDTAVYYCARGSTNTYYYDSSGHPWGQGTMVTVSS", "VL": "DIVMTQSPLSLPATPGEPASISCRSSQSLLHSNGYTYLDWYLQKPGQSPQVLIYLASNRASGVPDRFSGSGSGTNFTLKISRVEAEDVGLFYCMQALQTPQTFGQGTKLEIKR", "notes": "Human IgG"}, "B6": {"name": "M14 (antibody, human IgG1, kappa, V domains shown)", "VH": "QVQLVESGGGLVKPGGSLRLSCAASGFTFSDYYMSWIRQAPGKGLEWVSYISSSGTTKYYADSVKGRFTISRDNAKNSLYLQMNSLRAEDTAVYYCVRENLGYCSGGSCFYYYYMDVWGKGTTVTVSS", "VL": "not shown"}, "B7": {"name": "M16 (antibody, human IgG1, kappa, V domains shown)", "VH": "B6 VH", "VL": "not shown", "notes": "Human IgG"}, "B8": {"name": "M23 (antibody, human IgG1, kappa, V domains shown)", "VH": "B6 VH with L101I, S105T, S108N", "VL": "not shown"}}, "note": "Substitutions are numbered along the chain they refer to."}
{"molecular_target": "T1, MUC1 on MUC1+ human cancer cell lines and tumor tissue (abnormal, e.g. hypoglycosylated, tumor MUC1) (human, UniProt P15941 24-1255)", "T1 construct": "the MUC1 of each cell line or tissue (number of repeats, glycoform) is not specified; The cell line or tissue is named under assay; also called MUC1 on HPAF, MCF-7, BT-20, SKBR-3, PANC-1, MS+MUC1 cells; MUC1 on colon and pancreatic tumor samples", "assay": "flow cytometry, SKBR-3 cells", "experimental": "(§1) The antibodies were further characterized for their surface binding to MUC1-expressing human cancer cell lines HPAF (pancreatic), MCF-7 (breast), BT-20 (breast), PANC-1 (pancreatic), and MS (breast) cell lines that express very low levels of MUC1 and was transfected with MUC1 cDNA (MS+MUC1). MCF-10A, a human nontransformed mammary epithelial cell line that expresses normal MUC1, was used as a predicted negative control for tumor MUC1 (hypoglycosylated MUC1)-specific staining Cells were grown attached to tissue culture plates, trypsinized, washed with PBS and 1% FBS and stained with each antibody for 30 minutes on ice. Cells were then washed 2 times with PBS and 1% FBS and stained with appropriate allophycocyanin (APC)-labeled secondary antibodies. Cells were washed again 2 times with PBS and 1% FBS and then analyzed by flow cytometry. Thirty-thousand events were collected for each sample and gated for viability by forward and side scatter. Live cells were then gated for APC+ staining as compared to an appropriate secondary antibody only control.", "units": {"percentage of APC+ stained cells": "%"}}
{"binder": "B1", "percentage of APC+ stained cells": 1.34}
{"binder": "B2", "percentage of APC+ stained cells": 0.99}
{"binder": "B3", "percentage of APC+ stained cells": 1.91}
{"binder": "B4", "percentage of APC+ stained cells": 5.71}
{"binder": "B5", "percentage of APC+ stained cells": 1.65}
{"binder": "B6", "percentage of APC+ stained cells": 22.3}
{"binder": "B7", "percentage of APC+ stained cells": 2.68}
{"binder": "B8", "percentage of APC+ stained cells": 18.6}
{"molecular_target": "T1, MUC1 on MUC1+ human cancer cell lines …", "assay": "flow cytometry, BT20 cells", "experimental": "as §1", "units": {"percentage of APC+ stained cells": "%"}}
{"binder": "B1", "percentage of APC+ stained cells": 3.39}
{"binder": "B2", "percentage of APC+ stained cells": 4.06}
{"binder": "B3", "percentage of APC+ stained cells": 9.86}
{"binder": "B4", "percentage of APC+ stained cells": 14.8}
{"binder": "B5", "percentage of APC+ stained cells": 12.2}
{"binder": "B6", "percentage of APC+ stained cells": 22.9}
{"binder": "B7", "percentage of APC+ stained cells": 5.17}
{"binder": "B8", "percentage of APC+ stained cells": 23}
{"molecular_target": "T1, MUC1 on MUC1+ human cancer cell lines …", "assay": "flow cytometry, HPAF cells", "experimental": "as §1", "units": {"percentage of APC+ stained cells": "%"}}
{"binder": "B1", "percentage of APC+ stained cells": 2.99}
{"binder": "B2", "percentage of APC+ stained cells": 2.6}
{"binder": "B3", "percentage of APC+ stained cells": 4.36}
{"binder": "B4", "percentage of APC+ stained cells": 42.1}
{"binder": "B5", "percentage of APC+ stained cells": 51.5}
{"binder": "B6", "percentage of APC+ stained cells": 6.81}
{"binder": "B7", "percentage of APC+ stained cells": 5.93}
{"binder": "B8", "percentage of APC+ stained cells": 5.71}
{"molecular_target": "T1, MUC1 on MUC1+ human cancer cell lines …", "assay": "flow cytometry, MCF-7 cells", "experimental": "as §1", "units": {"percentage of APC+ stained cells": "%"}}
{"binder": "B1", "percentage of APC+ stained cells": 5.68}
{"binder": "B2", "percentage of APC+ stained cells": 5}
{"binder": "B3", "percentage of APC+ stained cells": 29.2}
{"binder": "B4", "percentage of APC+ stained cells": 79.6}
{"binder": "B5", "percentage of APC+ stained cells": 83.5}
{"binder": "B6", "percentage of APC+ stained cells": 20.8}
{"binder": "B7", "percentage of APC+ stained cells": 18.3}
{"binder": "B8", "percentage of APC+ stained cells": 16.1}
{"molecular_target": "T1, MUC1 on MUC1+ human cancer cell lines …", "assay": "immunohistochemistry, colon tissue microarray, benign samples", "experimental": "(§2) Secondary antibodies alone were used as negative controls. Following staining, the microarrays were analyzed using CELLPROFILER cell image analysis software (Broad Institute)."}
{"binder": "B6", "MUC1+ samples stained": "2 of 3 MUC1+ benign samples"}
{"binder": "B8", "MUC1+ samples stained": "2 of 3 MUC1+ benign samples"}
{"molecular_target": "T1, MUC1 on MUC1+ human cancer cell lines …", "assay": "flow cytometry, PANC-1 cells", "experimental": "as §1", "units": {"percentage of APC+ stained cells": "%"}}
{"binder": "B1", "percentage of APC+ stained cells": 0.7}
{"binder": "B2", "percentage of APC+ stained cells": 0.75}
{"binder": "B3", "percentage of APC+ stained cells": 0.39}
{"binder": "B4", "percentage of APC+ stained cells": 1.55}
{"binder": "B5", "percentage of APC+ stained cells": 0.41}
{"binder": "B6", "percentage of APC+ stained cells": 55.2}
{"binder": "B7", "percentage of APC+ stained cells": 0.76}
{"binder": "B8", "percentage of APC+ stained cells": 45.1}
{"molecular_target": "T1, MUC1 on MUC1+ human cancer cell lines …", "assay": "flow cytometry, MS+MUC1 cells", "experimental": "as §1", "units": {"percentage of APC+ stained cells": "%"}}
{"binder": "B1", "percentage of APC+ stained cells": 5.78}
{"binder": "B2", "percentage of APC+ stained cells": 4.41}
{"binder": "B3", "percentage of APC+ stained cells": 6.32}
{"binder": "B4", "percentage of APC+ stained cells": 22}
{"binder": "B5", "percentage of APC+ stained cells": 22.4}
{"binder": "B6", "percentage of APC+ stained cells": 28.4}
{"binder": "B7", "percentage of APC+ stained cells": 7.03}
{"binder": "B8", "percentage of APC+ stained cells": 33.8}
{"molecular_target": "T1, MUC1 on MUC1+ human cancer cell lines …", "assay": "immunohistochemistry, colon tissue microarray, malignant samples", "experimental": "as §2"}
{"binder": "B6", "MUC1+ samples stained": "56 of 114 MUC1+ malignant samples"}
{"binder": "B8", "MUC1+ samples stained": "76 of 114 MUC1+ malignant samples"}
